{
  "source": "the nanobody polyreactivity screen of Harvey et al. (2022)",
  "data": [
    {"assay": "yeast display, Sf9 membrane polyspecificity reagent, FACS + sequencing; frameworks hold sequencing errors", "procedure,_shortened": "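After 36–48 hours of galactose induction, yeast (Saccharomyces cerevisiae BJ5465) displaying a synthetic nanobody library were stained at 4 °C for 1 hour with 10% biotinylated, detergent-solubilized Sf9 membrane reagent. Streptavidin microbeads enriched the stained cells before FACS sorting into low and high (top ~1%) gates on anti-HA and streptavidin fluorescence. Each clone's polyreactivity label reflects its gate of origin.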", "values": [
      {"sequence": "QVQLVESGGGIVQAGGSLRLSCAASGRTFRPYAMGWYRQAPGKERELVAAITSGGSTYYADSVKGRFTISRDNAKNTVYLQMNSLKPEDTAVYYCNAKYYYQPPYDYWGQGTQVTVSS", "polyreactivity (PSR sort gate)": "low polyreactivity"},
      {"sequence": "QVQLVESGGGLVQAGGSLRLSCAASGRIFLYYAMGWYRQAPGKERELVAAITSSGGGTYYADSVKGRFTISRDNAKNTVYLQMNSLKPLDTAVYYCAARRRSQWRYYYWGQGTQVTVSS", "polyreactivity (PSR sort gate)": "high polyreactivity"},
      {"sequence": "QVQLVESGGCLVQAGGSLRLSCAASGFTFQKYAMGWYRQAPGKERELVAAISWSGSSTYYADSVKGRFTISRDNAKNTVYLQMNSLKPEDTAFYYCAADSYYIQERDYWGQGTQVTVSS", "polyreactivity (PSR sort gate)": "high polyreactivity"},
      {"sequence": "QVQLVESGGGLVQAGGSLRLSCAASGSTFSPYAMGWYRQAPGKERELVAAITSSGGSTYYADSVKGRFTISRDNAKNTVYLQMNSLKPEDTAVYYCAAEGYYTSTYDLYDYYWGQGTQVTVSS", "polyreactivity (PSR sort gate)": "low polyreactivity"},
      {"sequence": "QVQLVESGGGLVQAGGSLRLSCAASGSTFRVNAMGWYRQAPGKEREFVATIRGGGVRTYYADSVKGRFTISRDNAKNTVYLQMNSLKPEDTAVYYCNRKFYWRRDYWGQGTQVTVSS", "polyreactivity (PSR sort gate)": "high polyreactivity"},
      {"sequence": "QVHHVESGGGLVQAGGSRRLSSAASRIIIDTNAMGWSSQAPGKERELVASISTRGGSTYYADSVKGRFTISRDNAKNTVYLQMISLKPANTPVYYCNAVQTYSGGYEYWGQGTQVTVSS", "polyreactivity (PSR sort gate)": "high polyreactivity"},
      {"sequence": "QVQLVESGGGLVQAGGSLRLICAASGSTFRNYAMGWYRQAPGKEREFVAAITWSGGRTYYADSVKGRFTISRDNAKNTVYLQMNSLKPEDTAVYYCAARYRRGYDYWGQGTQVTVSS", "polyreactivity (PSR sort gate)": "high polyreactivity"},
      {"sequence": "QVHLVESGGGLVQAGGSLRLSCASSGSIFRYNTMGWYRQAPGKERELVAAIRGDGSTNYADSVKGRFTISRDNAKNTVYLQMNSLKPEDTAVYYCAVNLRGYRYAYDYWGQGTKVTVSS", "polyreactivity (PSR sort gate)": "low polyreactivity"},
      {"sequence": "QVQLVESGGGLVQAGGSLRLSCAASGSIFYRNAMGCYIQAPGKERELVAAITSSGVSTYYADSVKGRFTISRDNAKNTVYLQMNSLKPEDTAVYYCAARSVYTGRPYYYWGQGTQVTVSS", "polyreactivity (PSR sort gate)": "high polyreactivity"},
      {"sequence": "QVQLVESGGGLVQAGGSLRLSCAASGRSFVLYTMGWSRQAPGKEREWVAAISGSGGRTYYADSVKGRFTISRDHAKNTVNLQMNSLKPEDTAVYYCAAYGQGLPLYGYWGPGTQVTVSS", "polyreactivity (PSR sort gate)": "high polyreactivity"},
      {"sequence": "QVQLVESGGGLVQAGGRLRLSCAASASIFRLYAMGWYRQAPGKERELVAAIRWRAGSTYYADSVKGRFTLSRDNAKNTVYLQMNSLKPEETAVNYCAADAISSAWYAKYDYWGQGTQVTGSS", "polyreactivity (PSR sort gate)": "high polyreactivity"},
      {"sequence": "QVQLVESGAGLVQAGGSLRLSCAASGSTFSRYAMGWYRQAPGKERELVAAISRRGGSTYYSDSVKGRFTISRDNSKNTVYLQKISLKPEDTAVYYCAADPQPSSDRGTYDYWGQGTQVSVSS", "polyreactivity (PSR sort gate)": "high polyreactivity"},
      {"sequence": "QVLQQESCGLVQAGCSLRMSCAASGSISTALSMGWYRQAPGKERELVATISDGASTNYADSVKGRFTISRVNAKNTVYLQMNSLKPEDTAVYYFARYYFGNFGWGQGTQVTVSS", "polyreactivity (PSR sort gate)": "high polyreactivity"},
      {"sequence": "QVQLVESGGGLVQAGGSLRLSCSASGFIFGPNAMGWYRQAPGKEMELVAAISWMGSSTYYADSVKGRFTISRDNANNTVYLQMNSLKPEDTAVYYCAADSSERRLLDFDYWGQGTNVTVSS", "polyreactivity (PSR sort gate)": "low polyreactivity"},
      {"sequence": "QVQLGESGGGLVQAGGSLRLSCAASGIIFDTYAMGWYRQAPGKQRELVAVISTRGTSTYYADSVKGRFTISRDNAKNTVYLQMNSLKPEDTEVYYCNAFGRYSYPTFDYWGQGTQVTVSS", "polyreactivity (PSR sort gate)": "high polyreactivity"},
      {"sequence": "QVQLVESGGGLVQAGGSLRLSCAASGSIFDVYAMGWYRQAPGKERELVAAINGGGSTYYADSVKGRFTISRDNAKNTVYLQMNSLKPEDTAVYYCAADRYYYAYRYYPSGYWGQGTQVTVSS", "polyreactivity (PSR sort gate)": "low polyreactivity"},
      {"sequence": "QVQLVESGGRLVQAGGSLRLSCAASGRTFGGYMGWYRQAPGKESELVAVISSGDSTNYADSVKGRFTITRDNAKNTVYLQMNSVKPEDSAVYYCIAYGSDRLTLDDFWGQGTQVTVSS", "polyreactivity (PSR sort gate)": "low polyreactivity"},
      {"sequence": "QVQLVESGGGLVQAGGSLRLSCAASGFTFEYYPMGWYRQAPGKERELVADITTSSAGTYYADSVKGRFTISRDNAKNTFYLQMNSLKPEDTAVYYCNRDALNTGEDLDYWGQGTQVSVSS", "polyreactivity (PSR sort gate)": "low polyreactivity"},
      {"sequence": "QVQLVESGGGLVQAGGSLRLSCAASGRTFRYYAMGWYRQAPGTERELVATITGSGGSTYYADSVKGRFTISRDNAKNSVYLQMNSLKPEDTAVYYCNARKVRYPYRWYDYWGQGTQVTVSS", "polyreactivity (PSR sort gate)": "high polyreactivity"},
      {"sequence": "QVQLVESGGGLVQAGGSLRLSCAASGIIFSVYAMGWYRQAPGKERELVAAITRSGSRTYYADSVKGRFTISRDNAKNTVYLQMNSLKPEDTAVYYCNAVPRVTRPSAVEEYDYWGQGTQVTVSS", "polyreactivity (PSR sort gate)": "high polyreactivity"},
      {"sequence": "QVQLVESGGGLVQAGGSLRLSCDASGGPFYLNAMGWYRPAPGTERELVAGITWGGGRTYYADSVKGLFTISRDNAKNTVYLQMNSLKPEDTAVYYCAAGAWRGPYSGYYYWGQGTQVTVSS", "polyreactivity (PSR sort gate)": "low polyreactivity"},
      {"sequence": "QVQLVESGGGLVQAGGSLRLSCAASGSIFIYYAMGWYRQAPGKEREMVADITFSAGTNTYYADSVKGRFTISRDNAKNTVYLQKNSLKPEDTAVYYCNADRGFIGSITEYDYWGQGTQVTVSS", "polyreactivity (PSR sort gate)": "low polyreactivity"},
      {"sequence": "QVQLVESGGGLVQAGGSLRLSCAASGFIFPFYAMGWYRQAPGKEREFVAAITLSSGSTYYADSVKGRFTISRDNAKNTVFLQMNSLKPEDTAVYYCNADYNVYLYYGYDYWGQGTHVTVSS", "polyreactivity (PSR sort gate)": "low polyreactivity"},
      {"sequence": "QVQLVESGGGLVHAGGSLRLSCAASGITSPYSMGWYRQSPGKERELVAAISSGASTYYADTVKGRFTISRDNAKNTVYLQMNSLKPEVTAVYYCNRVTKRYPNIGNYWGQGTQVTLSS", "polyreactivity (PSR sort gate)": "high polyreactivity"},
      {"sequence": "QVQLVESGGGLVQAGGSLRLSCAASGSIFGVYVMGWYRQAPGKERELVAAITRGASTNYADSVKGRFTISRDNAKNTVYLQMNSLKPEDTAVYYCAADGWYSAVGVWLEYDYWGQGTQVTVSS", "polyreactivity (PSR sort gate)": "low polyreactivity"},
      {"sequence": "QVQLVESGGGLVQAGGSLRLSSAASGRIFRRNTMGWYRQAPGKERELVAAITSSGGSTYADSVKGRFTISRDNAKNTVYLQMNSLKPEDTAVYYCATYVAYHRGYRTYDHWGQGTQVTVSS", "polyreactivity (PSR sort gate)": "low polyreactivity"},
      {"sequence": "QVQLVESGGGLVQAGGSLRLSCAASGCIFTYNTMGWYRQAPGKERELVAAISGRGGRTYYADSVKGRFTISRDNAKNTVYLQMNSLKPEDTAVYYCNARKYSQKIYGNYNYWGKGTQVTVSS", "polyreactivity (PSR sort gate)": "high polyreactivity"},
      {"sequence": "QVQLVESGGCLVQAGGSLRLSCAASGSIFERNVMGWYRHAPGKERELVAAITSGGSTNYADSVKGRFTISRDNAKNTVYLQMNSLKPEETAVYYCAADVPYRSRFYRYRLSGGDYWGQGTQVTVSS", "polyreactivity (PSR sort gate)": "low polyreactivity"},
      {"sequence": "QVQLVESGGGLVQAGGSLRLSCAASGYIFKYYAMGWYRQAPGKERELVATINYSGGGTYYADSVKGRFTISRDNAKNTVYLQMNRLKPEDTAVYYCAAREKYISYSYYYWGQCTQVTVSS", "polyreactivity (PSR sort gate)": "high polyreactivity"},
      {"sequence": "QVQLVESGGGLVQAGGSLRLSCAASGITLSSNAMGWYRQAPGKERELVAAITWRTDRTYYADSVKGRFTISRDNAKNTVYLQMNSLKPEDTAVDYCAARTTVSSARYDYWGQGTQVTVSS", "polyreactivity (PSR sort gate)": "high polyreactivity"},
      {"sequence": "QVQLVESGGGLVQAGGSLRLSCAASGSIYYWYASGWYIHAPGKERELVAAITSGGSTNYADSVKGRFTISRDNAKNTVYLQMNSLKPEDTAVYYCAASSVLTNHDYWGQGTQVTVSS", "polyreactivity (PSR sort gate)": "low polyreactivity"},
      {"sequence": "QVQLVESGGGLVQAGGSLRLSCAASGRIFRKYTMGWYRQAPGKERELVAAITGTGGSTYYADSVKGRFTISRDNAKNTVYLQMNSLKPEDTAVYYCAAVARFRYSDMYYWGQGTQVTVSS", "polyreactivity (PSR sort gate)": "high polyreactivity"},
      {"sequence": "QDQLVESGGGLVQAGGSLRLSCAASGSIFSTYAMGWYRQAPGKERELVAAIDGSGGSTYADSVKGRFTISRDNAKNTVYLQMNSLKPEDTAVYYCAVDSFLVYSAVRPYDYWGQGTQVTVSS", "polyreactivity (PSR sort gate)": "low polyreactivity"},
      {"sequence": "QVQLVESGGGLVQAGGSLRLSCAASGSISGRYAMGWYRQAPGKERELVAAISWIGGSTYYADSVKGRFTISRDNAKNTVYLQMNSLKPEDTAVYYCNVTIDTRTHPLLVVFYGYDYWGQGTQVTVSS", "polyreactivity (PSR sort gate)": "low polyreactivity"},
      {"sequence": "QVQLVESGGGLVQAGVSLRLSCAASGRTFRFYAMGWYRQAPGKERELVAAITGSGGSTYYADSVKGRFTISRDNAKNTVYLQMNCLKPEDTAVYYCAASRWREYHASKMDYWGQGTQVTVSS", "polyreactivity (PSR sort gate)": "low polyreactivity"},
      {"sequence": "QVQLVESGGGLVQAGGSLRLSCAASGSTFVDNLMGWYRQSPGKERELVAAIDFSTGSTYYADSVKGRFTISRDNAKNTVYLQMNSLKPDDTAVYYCNAKYYSWDWSSFNYWGQGTQVTVSS", "polyreactivity (PSR sort gate)": "low polyreactivity"},
      {"sequence": "QVQLVESGGGLVQAGGSLRLSCAASGSIFIRYAMGWYRQAPGKERELVASISRSGGSTYYADSVKGRFTISRDNAKNTVYLQMNSLKPEDTAVYYCAARRVRPNGYTSSPLDYWGQGTQVTVSS", "polyreactivity (PSR sort gate)": "high polyreactivity"},
      {"sequence": "QGQLVESGGGLVQAGGSLSLSCAASGFIFSGYAMGWYRQAPGKERELVAAISTRGGRTYYADSVKGRFTISRDNAKNTVYLQMNSLKPEDTAVYYCAADSLYPELDYWGQGTQVTVSS", "polyreactivity (PSR sort gate)": "high polyreactivity"},
      {"sequence": "QVQLVESGGGLVQAGGSLRLSCAASGYIFRHYAMVWYRQAPGKERELVAAISSSGGRTNYADSLKGRFTISRDNAKITVYLQMNSLKPEDTAVYYCNAGRYQYLGGYGYWGQGTQVTVSS", "polyreactivity (PSR sort gate)": "low polyreactivity"},
      {"sequence": "QVQLVESGGGLVQAGGSLRLSCAASGRTFGTNAMGWYRHAPGKERELVAANSRRGGSTYYAESVKGRFTISRDNEKNTVYLQMNSLKPEDTAVYYCAKTIGLKHEDEYWGQGTQVTVSS", "polyreactivity (PSR sort gate)": "low polyreactivity"},
      {"sequence": "QVQLVESGGGLVQAGGSLRLSCAASGRIFVANAMGWYRQAPGKERELVAVISGSGGRTYYADSVKGRFTISRDNAKNTVYLQMNSLKPEDTAVYYCAAQKWQQGITAYEYWGQGTQVTVSS", "polyreactivity (PSR sort gate)": "high polyreactivity"},
      {"sequence": "QVQLVESGGGLVQAGGSLRLSCAAYGRTFRLNAMGWYRQAPGKERELVAGIRVRAGTTYYADSVKGRFTISRDNAKNTVYLQMNSLKPEDTAVYYCAAESYSRSRKYDYWGQGTQVTVSS", "polyreactivity (PSR sort gate)": "high polyreactivity"},
      {"sequence": "QVQLVESGGGLVQAGGSLRLSCAASGRIFGHYAMGWYRQAPGKERELVASISSNGGSTYYADSVKGRFTISRDNAKNTVYLQINSLKPEDTAVYYCAARVSTVFKRYYYWGQGTQVTVSS", "polyreactivity (PSR sort gate)": "high polyreactivity"}
    ]}
  ]
}
